Series [1] is described as follows: in vivo. Also noted: species or system mice. As to conditions: female, athymic Balb/c nude, mouse, iv, total radioactivity. The procedure: (§1) All animal experiments complied with the current laws of the Federal Republic of Germany and were conducted according to German Animal welfare guidelines. Normal female athymic Balb/c nude mice (17–20 g, 4–6 weeks old) were obtained from Janvier SAS (St. Berthevin Cedex, France). Mice were provided with food and water ad libitum. U-87 MG tumors were inoculated on the right shoulder by sub-cutaneous injection of 5×10^6 cells in a 100 μL cell suspension of a 1:1 v/v mixture of media with reconstituted basement membrane (GFR BD Matrigel™, Corning BV, Amsterdam, Holland).
For PET imaging studies, mice (n = 3) were injected with 100 μL sterile filtered phosphate buffered saline formulations pH 7.4 of [^68Ga]3 (7–11 MBq) by intravenous tail-vein injection and anesthetized with isoflurane (2–4% in air) 5–10 min prior image acquisition. PET imaging was performed on a Focus 120 microPET scanner at 1 h after administration. Data were acquired 1 h post administration in list mode. Reconstruction was performed using unweighted OSEM2D. Image analysis was performed using AMIDE. Image counts per second per voxel (cps/voxel) were calibrated to activity concentrations (Bq mL^− 1) by measuring a 3.5 cm cylinder phantom filled with a known concentration of radioactivity.

Series [2] in a line: in vivo. Particulars: female, athymic Balb/c nude, mouse, iv, total radioactivity. Details: species or system mice. As for the experimental part: as §1
For each compound, a total of five animals were injected with [^68Ga]3 (7–11 MBq) in 100 μL sterile filtered phosphate buffered saline via a tail vein. At 1 h p.i., animals were sacrificed by isoflurane anesthesia. Organs of interest were dissected, weighed and assayed for radioactivity in a gamma counter. The percent injected activity per gram (%IA g^− 1) for each tissue was calculated by comparison of the tissue counts to a standard sample prepared from the injectate.
This is another data set of the same source.

For series [3], the system named is U-87 MG tumor bearing mice. As to conditions: mouse, in vivo; cited from earlier work. The procedure:
In addition to the ex vivo biodistribution studies, the distribution profile of [^68Ga]3 was also assessed 1 h after administration by small-animal PET imaging. Corresponding transverse and coronal maximum intensity projections of [^68Ga]3 in αvß3 xenograft bearing mice along with blocking studies are given Fig. 2. The results of the biodistribution study were confirmed by PET imaging. The αvß3 positive U-87 MG tumors as well as the liver and the kidneys were clearly visible on the PET images. The tumor uptake of [^68Ga]3 was determined to 2.48 ± 0.14 %IA g^− 1. The differences in blood and ti ...

Series [4] deals with mice bearing αvß3-positive U-87 MG tumors. As to conditions: mouse, in vivo; cited from earlier work. As for the experimental part:
Table 1 Ex vivo biodistribution of [^68Ga]3 in mice bearing αvß3-positive U-87 MG tumors at 1 h p.i. along with blocking studies in comparison to [^68Ga]Ga-NODAGA-c(RGDfK) and [^68Ga]Ga-DOTA-c(RGDfK) (data taken from ref. Dumont et al. [2011]). Data are expressed as %IA g^− 1 and represent mean ± SD (n = 5) | column: [^68Ga]Ga-NODAGA-c(RGDfK) / 1 h; [^68Ga]Ga-DOTA-c(RGDfK) / 1 h || Biodistribution data for [^68Ga]3 are presented in Table 1. For comparison, equivalent data taken from the literature are also given for compounds [^68Ga]Ga-NODAGA-c(RGDfK) and [^68Ga]Ga-DOTA-c(RGDfK) (Dumont et al. [2011]). The primary difference between these three compounds is the change in chelator.

For series [5] the following is noted: cited from earlier work. The text has this:
The radiolabelled conjugate [^68Ga]3 is highly hydrophilic with a log Doct/PBS value of − 3.89 ± 0.02.

For `Cn1ccnc1CN1CCN(CC(=O)NCCCC[C@@H]2NC(=O)[C@@H](Cc3ccccc3)NC(=O)[C@H](CC(=O)O)NC(=O)CNC(=O)[C@H](CCCNC(=N)N)NC2=O)CCN(Cc2nccn2C)CC1` [[^68Ga]3, [^68Ga]Ga-NODIA-Me-c(RGDfK), metal not drawn], the tissue to tissue ratio at 1 h in “in vivo [1]” worked out at 6.76; in “in vivo [2]” (Tumor-to-blood ratio), 3.91 ± 0.43; in “in vivo [2]” (Tumor-to-kidney ratio) it was 1.27 ± 0.04; in the series “in vivo [2]” (Tumor-to-liver ratio), 2.08 ± 0.18; in “in vivo [2]” (Tumor-to-muscle ratio), 11.7 ± 0.29. For the same compound, the tissue uptake at 1 h in the series “in vivo [2]” (Accumulation in all other organs (other than tumor, kidney, liver)) is under 1 %ID/g.

With [^68Ga]Ga-DOTA-c(RGDfK) (head to tail), the “Tumor-to-background ratio (PET)” value in series [3] is on record as 3.28. In addition, in series [4], the Tumor-to-blood ratio was 9.24 ± 1.12, the Tumor-to-kidney ratio is 1.57 ± 0.14, the Tumor-to-liver ratio is listed as 2.25 ± 0.37 and the Tumor-to-muscle ratio is given as 12.37 ± 1.81. Moreover, the “log D” value in series [5] is “− 2.86 ± 0.01”.

Regarding “[^68Ga]Ga-NODAGA-c(RGDfK) (head to tail)”, the “Tumor-to-background ratio (PET)” value in series [3] is recorded as 11.97. In addition, in series [4], the Tumor-to-blood ratio was 27.67 ± 7.01, the Tumor-to-kidney ratio is listed as 2.64 ± 0.31, the Tumor-to-liver ratio is 2.75 ± 0.31 and the Tumor-to-muscle ratio is 12.80 ± 5.25. Further, the “log D” value in series [5] is given as “− 3.27 ± 0.01”.

Source of the values: paper PMC5932101 (EJNMMI Radiopharmacy and Chemistry, 2018).
